Measured values as given in patent US20240115742A1, “FLUORINATED FIBERS FOR MULTIMODAL 1H AND 19F MRI, ULTRASOUND, FLUORESCENCE DETECTION AND CONFORMATIONAL AND TEMPERATURE DETECTION BY 19F MRS” (New York University, priority 2022, published 2024).
Square brackets hold non-standard residues; d marks the D form. Ends that are not written are not given here. LTF = trifluoroleucine

How the values were obtained:
Assay type in all cases: physicochemical
[1] = Tube inversion concentration-temperature phase diagram; conditions: for solubility limit: 50 mM Tris, 500 mM NaCl, pH 8.0; for UCST: at solubility limit, extent of gelation η 0.5
Description: Tube Inversion Test. Immediately after concentration to 2 mM, the protein was incubated at 4° C. over the course of two weeks after aliquoting 150 μL into a 2 mL Eppendorf tube. The samples were visually assessed for gelation by inverting the tubes at 12-hour time intervals thereafter, with gelled samples not flowing upon inversion.
Gelation. To study the relative gelation of Q2 as compared to the previously reported coiled-coil hydrogel, Q, protein was successfully expressed (FIG. 24), purified (FIG. 25), and concentrated to 2 mM (1% w/v) in Tris buffer (50 mM Tris, 500 mM NaCl) at pH 8.0. Purity of the protein was measured to be >99% by SDS-PAGE (FIG. 26) and concentration was measured by BCA assay. Immediately following concentration, the gelation process of Q2 was studied using the microrheology assay described previously following incubation at 4° C. Separately, 150 μL samples were aliquoted for tube inversion tests performed after 2 weeks of incubation for visual assessment of gelation over time at 4° C. (FIG. 19a-d) and at concentrations from 1 mM to 3.5 mM with temperatures 5° C. to 25° C. using 0.5 mM and 5° C. step sizes, respectively, to create a matrix-based phase diagram (FIG. 19e). Temperature and concentration ranges were selected based on preliminary tube-inversion testing at high and low ends of the ranges.
Thermoresponsiveness and material strength. UCST behavior of protein hydrogels was assessed by testing […] samples via tube inversion in 2 mL microtubes after incubation for two weeks at various temperatures and concentrations. Temperature conditions were modulated in the range of 5-40° C. The concentration range was modified depending on if precipitation was visually noticeable in the microtube at an earlier concentration, indicating a solubility limit to our phase diagram, as has been done previously. […] As done with Q2, the UCST of the hydrogels was determined using a bivariate linear relationship for the extent of gelation where tubes that passed gelation by tube inversion were assigned a value of 1 (shown in black in FIG. 52a and FIG. 64a-d) and tubes that failed gelation by tube inversion (shown in red in FIG. 52a and FIG. 64a-d) were assigned a value of 0. The heatmap in FIG. 52a and FIG. 64a-d was used to denote the range of extent of gelation where the equation was employed to solve for the UCST using the solubility limit and solving for an extent of gelation, η, value of 0.5. The UCSTs (FIG. 52b) for the hydrogels studied here were 13.0° C., 35.9° C., 33.6° C., 17.5° C., and 22.9° C. for Q3-7, respectively, as compared to 17.0° C. for Q and 22.0° C. for Q2 found previously. Bivariate regression allowed for solving the coefficients for the dependence of temperature and concentration on gelation.
Tube Inversion. Binary sol-gel behavior was assessed using tube inversion. Immediately after concentration to 2 mM, 150 μL of Q hydrogel variants were incubated in 2 mL microtubes at 4° C. for two weeks. Gelation was visually observed by inverting the microtube and inspecting the sample for flow from the top of tube.

[2] = TEM of protein fibers; conditions: for average protein fiber diameter (TEM): fibers, 50 mM NaH2PO4 pH 4.0
Description: (§1) Transmission Electron Microscopy. Transmission electron microscopy (TEM) images were taken with a FEI Talos L120C transmission electron microscope. Protein fiber samples were diluted to 50 μM and 3 μL was spotted on Formvar/carbon-coated copper grids followed by 5 μL wash with water, and 3 μL staining with 1% v/v uranyl acetate solution each with incubation times of 1 min at RT. Fibrils were sized in ImageJ software (Version 1.52q).
as §1, with “Samples” for “Protein fiber samples”, “by a” for “by”, “min. Between steps, filter paper was used to wick the grids. Following imaging, fibrils” for “min at RT. Fibrils”

[3] = ATR-FTIR peak deconvolution of secondary structure
Description: Attenuated Total Reflectance-Fourier Transform Infrared Spectroscopy. Secondary structure of protein fiber variants was confirmed using attenuated total reflectance-Fourier transform infrared (ATR-FTIR) spectroscopy using the Nicolet 6700 Fourier Transform Infrared Spectrometer equipped with a diamond ATR accessory and a mercury cadmium telluride (MCT)-A detector. Spectra were collected for 5 μL of 500 μM protein from 4000-400 cm^−1 with 0.5 cm^−1 increments at room temperature (RT). For CCM bound protein, protein was bound at a final concentration of 500 μM and saturated with CCM as determined by fluorescent spectroscopic drug binding with a final 1% v/v DMSO. Sample spectra were normalized using buffer background and analyzed from 1700-1600 cm^−1 corresponding to the amide I region. Peaks were deconvoluted using Gaussian functions in PeakFit software until the goodness of fit reached r^2≥0.99. Peaks were associated with secondary structure were determined by methods known in the art.
(§2) Attenuated Total Reflectance-Fourier Transform Infrared Spectroscopy. Secondary structure of Q2 protein was confirmed using attenuated total reflectance-Fourier transform infrared (ATR-FTIR) spectroscopy using the Nicolet 6700 Fourier Transform Infrared Spectrometer equipped with a diamond ATR accessory and a mercury cadmium telluride (MCT)-A detector. Spectra were collected for 5 μL of 2 mM protein from 4000-400 cm^−1 with 0.5 cm^−1 increments. Sample spectra were normalized using buffer background and analyzed from 1700-1600 cm^−1 corresponding to the amide I region. Peaks were deconvoluted using Gaussian functions in PeakFit software until the goodness of fit reached r^2>0.99.
as §2, with “of Q2LTF and QLTF” for “of Q2”, “using a” for “using the”, “of 1” for “of 2”, “with 4.0” for “with 0.5”, “reached r^2≥0.99.” for “reached r^2>0.99.”
Attenuated Total Reflectance-Fourier Transform Infrared Spectroscopy. Secondary structure before (solution) and after gelation (gel) was also assessed by peak deconvolution of attenuated total reflectance-Fourier transform infrared (ATR-FTIR) spectra. ATR-FTIR measurements were performed using a Nicolet 6700 Fourier Transform Infrared Spectrometer equipped with a mercury cadmium telluride (MCT)-A detector. Spectra were collected for 5 μL samples of protein at 2 mM from 4000-400 cm^−1 with a 4.0 cm^−1 resolution, normalized, and buffer-subtracted prior to analysis from 1700-1600 cm^−1, corresponding to the amide I region. ATR-FTIR measurements were performed immediately after concentration to 2 mM for solution measurements and after. Peaks were deconvoluted using Gaussian functions in PeakFit software until the goodness of fit reached r^2≥0.99.

Q: With “Q5: Q hydrogel variant from Rosetta Monte Carlo search, SEQ ID NO: 14 (MRGSHHHHHHGSIEGRVKEITFIKKTIEQIAEEMKEINKAIHDIRHALENISKK) [Protein Q5]” as the substance, how does the solubility limit [1] read?
A: 3.5 mM

Q: What about the UCST [1] of the same substance?
A: 33.6 °C

Q: What does the source list for “Q2LTF: protein-engineered fluorinated coiled-coil fiber, Q2 with trifluoroleucine, SEQ ID NO: 20 (MRGSHHHHHHGSIEGRVKE[LTF][LTF]F[LTF]KKTAEQM[LTF]EE[LTF]KETNKA[LTF]HDVRH[LTF][LTF]ENQSK[LTF]; ends and bridges not checked) [Protein Q2LTF]”?
A: fiber assembly size by TEM ([2]; 2 mM, 50 mM Tris, 500 mM NaCl, pH 8.0, 4 °C, n=20): 215.8±38.6 nm; diameter of large fiber aggregates ([2]; as E88): ≤ 840 nm; median fiber diameter ([2]; as E88): 181.7 nm; striation (protofibril) size by TEM ([2]; n=20): 3.6±0.8 nm; α-helical content [3]: 42.4±8.6%; aggregated strands ([3]; fluorinated constructs, Tris buffer): 6.8 % composition

Q: What does the source list for “Q: rationally designed pentameric coiled-coil derived from C, SEQ ID NO: 23 (MRGSHHHHHHGSIEGRVKEITFLKNTAPQMLRELQETNAALQDVRELLRQQSKL) [reference compound]”?
A: average protein fiber diameter (TEM) [2]: 208±82 nm; aggregated strands ([3]; native): 6.0%; antiparallel β-sheet/aggregated strands ([3]; native): 13.0%; aggregated strands ([3]; w/CCM): 15.4 ± 3.8%; antiparallel β-sheet/aggregated strands ([3]; w/CCM): 7.8%; solubility limit [1]: 3.5 mM; UCST [1]: 17.0 °C

Q: Which results are given for “Q2: coiled-coil protein redesigned from Q for reduced lateral assembly, SEQ ID NO: 11 (MRGSHHHHHHGSIEGRVKELLFLKKTAEQMLEELKETNKALHDVRHLLENQSKL) [Protein Q2]”?
A: average protein fiber diameter (TEM) [2]: 91±37 nm; aggregated strands ([3]; Gel, 2 mM): 2.3 % composition; aggregated strands ([3]; Solution, 2 mM): 2.1 % composition; aggregated strands ([3]; native): 3.9%; antiparallel β-sheet/aggregated strands ([3]; native): 20.6%; change in α-helical content upon gelation ([3]; solution to gel): +12.8%; aggregated strands ([3]; w/CCM): 10.6%; antiparallel β-sheet/aggregated strands ([3]; w/CCM): 0.0%; solubility limit [1]: 3.5 mM; UCST [1]: 22.0 °C

Q: For “Q3: Q variant with V44I pore mutation, SEQ ID NO: 12 (MRGSHHHHHHGSIEGRVKEILFLKNTAYQMLLELKETNEALYDIRHLLQQQSKL) [Protein Q3]”, which “average protein fiber diameter (TEM)” value [2] is on record?
A: 130±27 nm

Q: And the aggregated strands ([3]; native)?
A: 5.2%

Q: What about the “antiparallel β-sheet/aggregated strands” value ([3]; native) of the same substance?
A: 6.8%

Q: And the aggregated strands ([3]; w/CCM)?
A: 17.8%

Q: And the “antiparallel β-sheet/aggregated strands” value ([3]; w/CCM)?
A: 7.6%

Q: And the UCST [1]?
A: 13.0 °C
